Experimental data as given in patent publication EP1106183A2.
pKd: −log10 of the molar value.

What was measured:
[1] = target: human ErbB2 on BT474 human breast tumor cells (human) (UniProt P04626); experiment: cell-based or functional assay
[2] = target: human ErbB2 on BT474 human breast tumor cells (human) (UniProt P04626); experiment: Scatchard analysis; 125I-labelled antibody on BT474 cell monolayers, 4 h on ice

Substance	% apoptosis of BT474 cell population (Hoechst 33342 cell cycle analysis, 3 days) [1] [%]	proportion of S-phase cells (BT474, 3 days) [1] [%]	pKd [2]
anti-ErbB2 IgG1κ murine monoclonal antibody 4D5	41.9	5.4	8.19
anti-ErbB2 IgG1κ murine monoclonal antibody 7C2	60.5	64.9	
